Values quoted from earlier work in publication PMC7228754.

Target: Rab1b (Homo sapiens) (UniProt Q9H0U4)
Sequence (Q9H0U4 whole entry): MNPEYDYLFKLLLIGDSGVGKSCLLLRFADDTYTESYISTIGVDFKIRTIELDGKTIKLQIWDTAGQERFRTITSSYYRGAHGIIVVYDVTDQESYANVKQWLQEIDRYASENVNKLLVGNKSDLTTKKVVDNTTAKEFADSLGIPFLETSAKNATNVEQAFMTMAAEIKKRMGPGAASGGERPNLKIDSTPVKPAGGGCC

AnkX, sequence (Q5ZXN6 whole entry): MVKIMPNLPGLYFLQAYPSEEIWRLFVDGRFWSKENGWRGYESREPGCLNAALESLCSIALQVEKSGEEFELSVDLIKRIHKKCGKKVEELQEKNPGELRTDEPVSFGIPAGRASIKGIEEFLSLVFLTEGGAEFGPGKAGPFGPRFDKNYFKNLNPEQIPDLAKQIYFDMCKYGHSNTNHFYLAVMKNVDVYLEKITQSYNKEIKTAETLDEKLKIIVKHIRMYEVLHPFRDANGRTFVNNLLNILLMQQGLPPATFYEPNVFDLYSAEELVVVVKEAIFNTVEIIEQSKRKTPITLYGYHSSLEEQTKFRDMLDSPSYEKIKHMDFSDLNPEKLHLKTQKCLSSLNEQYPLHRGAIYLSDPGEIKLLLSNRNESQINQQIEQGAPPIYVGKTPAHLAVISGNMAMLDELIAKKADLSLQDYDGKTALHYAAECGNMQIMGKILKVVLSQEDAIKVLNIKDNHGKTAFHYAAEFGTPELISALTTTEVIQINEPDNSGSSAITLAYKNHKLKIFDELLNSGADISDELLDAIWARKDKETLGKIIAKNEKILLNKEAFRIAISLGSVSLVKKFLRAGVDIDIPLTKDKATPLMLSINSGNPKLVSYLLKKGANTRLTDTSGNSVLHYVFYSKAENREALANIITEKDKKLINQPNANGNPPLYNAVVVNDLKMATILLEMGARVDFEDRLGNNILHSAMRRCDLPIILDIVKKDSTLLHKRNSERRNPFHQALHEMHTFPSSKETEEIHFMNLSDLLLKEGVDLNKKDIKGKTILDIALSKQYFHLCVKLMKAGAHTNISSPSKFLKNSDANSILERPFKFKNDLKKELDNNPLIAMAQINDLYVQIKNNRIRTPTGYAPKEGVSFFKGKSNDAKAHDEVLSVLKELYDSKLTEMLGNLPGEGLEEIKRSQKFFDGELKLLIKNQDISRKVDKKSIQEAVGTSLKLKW

AnkX (from UniProt Q5ZXN6)
Kd: 122 µM
